We go through 4 substances from doi:10.1101/2021.07.02.450866.

The target of experiment [1] is CE3-HA-B*27:05 (HLA-B*27:05 heavy chain) (human). Put plainly: non-reducing SDS-PAGE and Western blot of precipitated surface class I. For orientation: In western blotting, separated proteins are transferred to a membrane and probed.
The target of experiment [2] is GFP-K^b (free heavy chain of H-2K^b with N-terminal monomeric GFP) (murine) (UniProt P01901). As to the kind of experiment: single-molecule co-tracking.
Experiment [3] deals with HA-K^b (free heavy chain of H-2K^b with N-terminal HA tag) (murine) (UniProt P01901). As to the kind of experiment: FRAP.
In experiment [4] the target is isolated, soluble α3 domain of H-2K^b (recombinant) (murine) (UniProt P01901). As to the kind of experiment: native MS.
Experiment [5] shares this target. Put plainly: SEC. (In general: SEC sorts molecules by how far they enter the pores of the column.)

Take “CE3-HA-B*27:05 (HLA-B*27:05 heavy chain) (natural protein)”: the stoichiometry N – broadly, a count of units in the complex or per binding partner – in experiment [1] turned out to be 2.
Take “GFP-K^b (free heavy chain of H-2K^b with N-terminal monomeric GFP) (from UniProt P01901 22-369) (natural protein)”: in experiment [2], the fraction of co-locomoting molecules worked out at 3%; the half-life (t½) is 220 ms; the koff (as a rule, the first-order rate constant of dissociation) was 3.1 s⁻¹; the stoichiometry N stood at 2.
On to “K^b-GFP (free heavy chain of H-2K^b with C-terminal GFP) (from UniProt P01901 22-369) (natural protein)”, for which the half-time of dissociation in experiment [3] came out at 140 s.
With “isolated, soluble α3 domain of H-2K^b (recombinant) (from UniProt P01901 205-295) (domain or fragment)”, the stoichiometry N in experiment [4] was 2. For the same substance, in experiment [5], the dissociation constant (Kd) (in general, the free concentration of one partner at which half of the binding sites on the other are occupied at equilibrium, for simple one-to-one binding) lay within 10 to 20 µM and the stoichiometry N is 2.
